The text below walks through data of article PMC8440931, “Physical and Functional Interaction of Mitochondrial Single-Stranded DNA-Binding Protein and the Catalytic Subunit of DNA Polymerase Gamma” (Frontiers in Genetics, 2021).

Sequences and labels used below:
B1: biotinylated mtSSB variant lacking nine residues of loop 2.3 (Δ67-75), BTN-mtSSB_(l2.3) (natural protein, human, UniProt Q04837 17-148, looked up)
chain: ESETTTSLVLERSLNRVHLLGRVGQDPVLRQVEGKNPVTIFSLATNEMWRGDVSQKTTWHRISVFRPGLRDVAYQYVKKGSRIYLEGKIDYGEYMDKNNVRRQATTIIADNIIFLSDQTKEKE
modifications: biotin (conjugated; site not stated)
notes: also called loop 2.3-deficient mtSSB; source: purified recombinant protein; details in the Supplementary Materials
B2: catalytic subunit of mitochondrial DNA polymerase gamma (Pol γα) (enzyme, human, UniProt P54098 1-1239, looked up)
chain: MSRLLWRKVAGATVGPGPVPAPGRWVSSSVPASDPSDGQRRRQQQQQQQQQQQQQPQQPQVLSSEGGQLRHNPLDIQMLSRGLHEQIFGQGGEMPGEAAVRRSVEHLQKHGLWGQPAVPLPDVELRLPPLYGDNLDQHFRLLAQKQSLPYLEAANLLLQAQLPPKPPAWAWAEGWTRYGPEGEAVPVAIPEERALVFDVEVCLAEGTCPTLAVAISPSAWYSWCSQRLVEERYSWTSQLSPADLIPLEVPTGASSPTQRDWQEQLVVGHNVSFDRAHIREQYLIQGSRMRFLDTMSMHMAISGLSSFQRSLWIAAKQGKHKVQPPTKQGQKSQRKARRGPAISSWDWLDISSVNSLAEVHRLYVGGPPLEKEPRELFVKGTMKDIRENFQDLMQYCAQDVWATHEVFQQQLPLFLERCPHPVTLAGMLEMGVSYLPVNQNWERYLAEAQGTYEELQREMKKSLMDLANDACQLLSGERYKEDPWLWDLEWDLQEFKQKKAKKVKKEPATASKLPIEGAGAPGDPMDQEDLGPCSEEEEFQQDVMARACLQKLKGTTELLPKRPQHLPGHPGWYRKLCPRLDDPAWTPGPSLLSLQMRVTPKLMALTWDGFPLHYSERHGWGYLVPGRRDNLAKLPTGTTLESAGVVCPYRAIESLYRKHCLEQGKQQLMPQEAGLAEEFLLTDNSAIWQTVEELDYLEVEAEAKMENLRAAVPGQPLALTARGGPKDTQPSYHHGNGPYNDVDIPGCWFFKLPHKDGNSCNVGSPFAKDFLPKMEDGTLQAGPGGASGPRALEINKMISFWRNAHKRISSQMVVWLPRSALPRAVIRHPDYDEEGLYGAILPQVVTAGTITRRAVEPTWLTASNARPDRVGSELKAMVQAPPGYTLVGADVDSQELWIAAVLGDAHFAGMHGCTAFGWMTLQGRKSRGTDLHSKTATTVGISREHAKIFNYGRIYGAGQPFAERLLMQFNHRLTQQEAAEKAQQMYAATKGLRWYRLSDEGEWLVRELNLPVDRTEGGWISLQDLRKVQRETARKSQWKKWEVVAERAWKGGTESEMFNKLESIATSDIPRTPVLGCCISRALEPSAVQEEFMTSRVNWVVQSSAVDYLHLMLVAMKWLFEEFAIDGRFCISIHDEVRYLVREEDRYRAALALQITNLLTRCMFAYKLGLNDLPQSVAFFSAVDIDRCLRKEVTMDCKTPSNPTGMERRYGIPQGEALDIYQIIELTKGSLEKRSQPGP

One data set addresses Pol γβ (Homo sapiens) (UniProt Q9UHN1). To be noted: cited from earlier work.
The target in data set [1] is B2. Put plainly: BLI; BTN-mtSSB or BTN-mtSSB_(l2.3) (600 nM) saturated on streptavidin sensors; Pol γα as analyte at increasing concentrations; Ac buffer: 50 mM Tris-HCl pH 8.0, 10 mM KCl, 4 mM MgCl2, 0.4 mg/ml BSA, 10 mM DTT; 30°C, 1,000 rpm; 1:1 interaction model. To be noted: both partners purified. A general note: Biolayer interferometry detects binding as a change in optical thickness at a sensor tip.

Data set [2] deals with B1. Put plainly: cell-based or functional assay.
Another data set concerns the target T1, mtSSB (wild type) (UniProt Q04837 17-148).
T1 sequence: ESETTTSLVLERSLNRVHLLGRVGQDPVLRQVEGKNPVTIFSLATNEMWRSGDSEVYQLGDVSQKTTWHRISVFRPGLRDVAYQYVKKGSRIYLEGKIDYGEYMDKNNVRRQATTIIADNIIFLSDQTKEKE
Put plainly: BLI; 4 mM Mg2+; equilibrium responses of mass transfer fit, non-1:1 binding; BLI: 50 mM Tris-HCl pH 8.0, 10 mM KCl, 4 mM MgCl2, 0.4 mg/ml BSA, 10 mM DTT, 30 C. To be noted: protein: recombinant; chain copies: 4; label: 5'-biotin (immobilized on streptavidin sensor); single strand.

Sequence of Pol γβ (Homo sapiens) (Q9UHN1 2-485): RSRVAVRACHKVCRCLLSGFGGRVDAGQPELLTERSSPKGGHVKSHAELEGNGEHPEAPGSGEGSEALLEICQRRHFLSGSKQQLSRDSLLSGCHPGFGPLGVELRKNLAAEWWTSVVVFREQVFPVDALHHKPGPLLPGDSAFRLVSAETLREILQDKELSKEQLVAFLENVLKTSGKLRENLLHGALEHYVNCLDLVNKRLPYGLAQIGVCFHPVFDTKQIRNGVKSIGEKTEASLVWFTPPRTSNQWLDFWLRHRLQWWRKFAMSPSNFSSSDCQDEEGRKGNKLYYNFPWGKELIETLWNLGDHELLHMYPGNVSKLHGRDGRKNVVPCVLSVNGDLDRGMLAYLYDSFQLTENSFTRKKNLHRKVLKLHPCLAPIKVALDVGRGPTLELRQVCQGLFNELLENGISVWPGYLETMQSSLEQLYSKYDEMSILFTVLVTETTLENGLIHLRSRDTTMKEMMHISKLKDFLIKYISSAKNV

Regarding Pol γα (from UniProt P54098), the dissociation constant (Kd) (commonly a measure of binding affinity in units of concentration) with Pol γβ (Homo sapiens) is 20 nM.

Consider B1, for which binding in data set [1] was characterised by a dissociation constant (Kd) of 26 nM.

Regarding B2, in data set [2], the “inhibition of primer extension by Pol γα on primer-template (15/59) DNA (mtSSB displacement assay), mtSSB_(l2.3) at 1:1 (~10%) and three-fold molar ratio to DNA template” value is roughly 25%.

Consider ATTATGAATTAATTTAATAATTTTTTTTTTTTTTTTTTTT (ssDNA, 5'-biotin) [BTN-ssDNA 40-mer], for which the Kd with mtSSB (wild type) stood at 2.3 nM.

B3: biotinylated mitochondrial single-stranded DNA-binding protein (BTN-mtSSB), wild type (natural protein, human, UniProt Q04837 17-148, looked up)
chain: ESETTTSLVLERSLNRVHLLGRVGQDPVLRQVEGKNPVTIFSLATNEMWRSGDSEVYQLGDVSQKTTWHRISVFRPGLRDVAYQYVKKGSRIYLEGKIDYGEYMDKNNVRRQATTIIADNIIFLSDQTKEKE
modifications: biotin (conjugated; site not stated)
notes: also called mtSSB4; wild-type mtSSB; source: purified recombinant protein; details in the Supplementary Materials
B3 returned a dissociation constant Kd in data set [1] of 48 nM.
